Where a chain is given by its changes, count along the chain named.
B1: wild-type KaiA of Synechococcus elongatus PCC 7942 (natural protein)
chain: MLSQIAICIWVESTAILQDCQRALSADRYQLQVCESGEMLLEYAQTHRDQIDCLILVAANPSFRAVVQQLCFEGVVVPAIVVGDRDSEDPDEPAKEQLYHSAELHLGIHQLEQLPYQVDAALAEFLRLAPVETMADHIMLMGANHDPELSSQQRDLAQRLQERLGYLGVYYKRDPDRFLRNLPAYESQKLHQAMQTSYREIVLSYFSPNSNLNQSIDNFVNMAFFADVPVTKVVEIHMELMDEFAKKLRVEGRSEDILLDYRLTLIDVIAHLCEMYRRSIPRET
notes: KaiA, Synechococcus elongatus PCC 7942; expressed from pGEX-6P-1; Plasmid provided by Dr. Carl Johnson; also called the wild-type KaiA
B2: KaiA-1-1 (natural protein, Synechococcus elongatus PCC 7942)
chain: B1 chain with E239N, A245W
notes: KaiA, Synechococcus elongatus PCC 7942, with the mutations of Cluster I; R249 belongs to the cluster but was not mutated; The oligomer state is said to be the same as that of the wild type; also called KaiA mutant of Cluster I
B3: KaiA-3-1 (natural protein, Synechococcus elongatus PCC 7942)
chain: B1 chain with R253H, S254K, I257F
notes: KaiA, Synechococcus elongatus PCC 7942, with the mutations of Cluster III; The oligomer state is said to be the same as that of the wild type; also called KaiA mutant of Cluster III
B4: KaiA-2-1 (natural protein, Synechococcus elongatus PCC 7942)
chain: B1 chain with L259Q
notes: KaiA, Synechococcus elongatus PCC 7942, with the mutation of Cluster II; The oligomer state is said to be the same as that of the wild type; also called KaiA mutant of Cluster II
B5: wild-type KaiC of Synechococcus elongatus PCC 7942 (enzyme)
chain: MTSAEMTSPNNNSEHQAIAKMRTMIEGFDDISHGGLPIGRSTLVSGTSGTGKTLFSIQFLYNGIIEFDEPGVFVTFEETPQDIIKNARSFGWDLAKLVDEGKLFILDASPDPEGQEVVGGFDLSALIERINYAIQKYRARRVSIDSVTSVFQQYDASSVVRRELFRLVARLKQIGATTVMTTERIEEYGPIARYGVEEFVSDNVVILRNVLEGERRRRTLEILKLRGTSHMKGEYPFTITDHGINIFPLGAMRLTQRSSNVRVSSGVVRLDEMCGGGFFKDSIILATGATGTGKTLLVSRFVENACANKERAILFAYEESRAQLLRNAYSWGMDFEEMERQNLLKIVCAYPESAGLEDHLQIIKSEINDFKPARIAIDSLSALARGVSNNAFRQFVIGVTGYAKQEEITGLFTNTSDQFMGAHSITDSHISTITDTIILLQYVEIRGEMSRAINVFKMRGSWHDKAIREFMISDKGPDIKDSFRNFERIISGSPTRITVDEKSELSRIVRGVQEKGPES
notes: KaiC, Synechococcus elongatus PCC 7942; expressed from pGEX-6P-1; The sample is a mixture of phosphorylated and de-phosphorylated KaiC (sites T432 and S431); also called the wild-type KaiC
B6: KaiC-3-1 (enzyme, Synechococcus elongatus PCC 7942)
chain: B5 chain with S493V, T495H
notes: KaiC, Synechococcus elongatus PCC 7942, with the mutations of Cluster III; The oligomer state is said to be the same as that of the wild type; also called KaiC mutant of Cluster III
B7: KaiC-1-1 (enzyme, Synechococcus elongatus PCC 7942)
chain: B5 chain with K502R
notes: KaiC, Synechococcus elongatus PCC 7942, with the mutation of Cluster I; The oligomer state is said to be the same as that of the wild type; also called KaiC mutant of Cluster I
B8: KaiC-2-1 (enzyme, Synechococcus elongatus PCC 7942)
chain: B5 chain with I497V, V499T, S503T
notes: KaiC, Synechococcus elongatus PCC 7942, with the mutations of Cluster II; The oligomer state is said to be the same as that of the wild type; also called KaiC mutant of Cluster II

Molecular target: KaiC (Synechococcus elongatus) (UniProt Q79PF4)
Assay: not given
Settings: cited from earlier work
For KaiA (from UniProt Q79PF6), the Kd is listed as 2500 nM.

Molecular target: the molecule itself
Assay: native gel or EMSA; 8% native gel of the purified proteins, to analyse their oligomerization statuses
Settings: not given
B1: binds.
B2: binds.
B3: binds.
B4: binds.
B5: binds.
B6: binds.
B7: binds.
B8: binds.

Source: article PMC4844972, “A dynamic interaction process between KaiA and KaiC is critical to the cyanobacterial circadian oscillator” (Scientific Reports, 2016)
